Experimental findings from IntAct's records for PubMed 19596235 are described below.

First the molecules themselves.
B1: Structure-specific endonuclease subunit SLX4 (Homo sapiens), Q8IY92 (parent)
chain: MKLSVNEAQLGFYLGSLSHLSACPGIDPRSSEDQPESLKTGQMMDESDEDFKELCASFFQRVKKHGIKEVSGERKTQKAASNGTQIRSKLKRTKQTATKTKTLQGPAEKKPPSGSQAPRTKKQRVTKWQASEPAHSVNGEGGVLASAPDPPVLRETAQNTQTGNQQEPSPNLSREKTRENVPNSDSQPPPSCLTTAVPSPSKPRTAQLVLQRMQQFKRADPERLRHASEECSLEAAREENVPKDPQEEMMAGNVYGLGPPAPESDAAVALTLQQEFARVGASAHDDSLEEKGLFFCQICQKNLSAMNVTRREQHVNRCLDEAEKTLRPSVPQIPECPICGKPFLTLKSRTSHLKQCAVKMEVGPQLLLQAVRLQTAQPEGSSSPPMFSFSDHSRGLKRRGPTSKKEPRKRRKVDEAPSEDLLVAMALSRSEMEPGAAVPALRLESAFSERIRPEAENKSRKKKPPVSPPLLLVQDSETTGRQIEDRVALLLSEEVELSSTPPLPASRILKEGWERAGQCPPPPERKQSFLWEGSALTGAWAMEDFYTARLVPPLVPQRPAQGLMQEPVPPLVPPEHSELSERRSPALHGTPTAGCGSRGPSPSASQREHQALQDLVDLAREGLSASPWPGSGGLAGSEGTAGLDVVPGGLPLTGFVVPSQDKHPDRGGRTLLSLGLLVADFGAMVNNPHLSDVQFQTDSGEVLYAHKFVLYARCPLLIQYVNNEGFSAVEDGVLTQRVLLGDVSTEAARTFLHYLYTADTGLPPGLSSELSSLAHRFGVSELVHLCEQVPIATDSEGKPWEEKEAENCESRAENFQELLRSMWADEEEEAETLLKSKDHEEDQENVNEAEMEEIYEFAATQRKLLQEERAAGAGEDADWLEGGSPVSGQLLAGVQVQKQWDKVEEMEPLEPGRDEAATTWEKMGQCALPPPQGQHSGARGAEAPEQEAPEEALGHSSCSSPSRDCQAERKEGSLPHSDDAGDYEQLFSSTQGEISEPSQITSEPEEQSGAVRERGLEVSHRLAPWQASPPHPCRFLLGPPQGGSPRGSHHTSGSSLSTPRSRGGTSQVGSPTLLSPAVPSKQKRDRSILTLSKEPGHQKGKERRSVLECRNKGVLMFPEKSPSIDLTQSNPDHSSSRSQKSSSKLNEEDEVILLLDSDEELELEQTKMKSISSDPLEEKKALEISPRSCELFSIIDVDADQEPSQSPPRSEAVLQQEDEGALPENRGSLGRRGAPWLFCDRESSPSEASTTDTSWLVPATPLASRSRDCSSQTQISSLRSGLAVQAVTQHTPRASVGNREGNEVAQKFSVIRPQTPPPQTPSSCLTPVSPGTSDGRRQGHRSPSRPHPGGHPHSSPLAPHPISGDRAHFSRRFLKHSPPGPSFLNQTPAGEVVEVGDSDDEQEVASHQANRSPPLDSDPPIPIDDCCWHMEPLSPIPIDHWNLERTGPLSTSSPSRRMNEAADSRDCRSPGLLDTTPIRGSCTTQRKLQEKSSGAGSLGNSRPSFLNSALWDVWDGEEQRPPETPPPAQMPSAGGAQKPEGLETPKGANRKKNLPPKVPITPMPQYSIMETPVLKKELDRFGVRPLPKRQMVLKLKEIFQYTHQTLDSDSEDESQSSQPLLQAPHCQTLASQTYKPSRAGVHAQQEATTGPGAHRPKGPAKTKGPRHQRKHHESITPPSRSPTKEAPPGLNDDAQIPASQESVATSVDGSDSSLSSQSSSSCEFGAAFESAGEEEGEGEVSASQAAVQAADTDEALRCYIRSKPALYQKVLLYQPFELRELQAELRQNGLRVSSRRLLDFLDTHCITFTTAATRREKLQGRRRQPRGKKKVERN

The variants in this assay derive from B1. As to conditions: with plk1_human PLK1, P53350.
Chain of plk1_human PLK1, P53350 (P53350 whole entry): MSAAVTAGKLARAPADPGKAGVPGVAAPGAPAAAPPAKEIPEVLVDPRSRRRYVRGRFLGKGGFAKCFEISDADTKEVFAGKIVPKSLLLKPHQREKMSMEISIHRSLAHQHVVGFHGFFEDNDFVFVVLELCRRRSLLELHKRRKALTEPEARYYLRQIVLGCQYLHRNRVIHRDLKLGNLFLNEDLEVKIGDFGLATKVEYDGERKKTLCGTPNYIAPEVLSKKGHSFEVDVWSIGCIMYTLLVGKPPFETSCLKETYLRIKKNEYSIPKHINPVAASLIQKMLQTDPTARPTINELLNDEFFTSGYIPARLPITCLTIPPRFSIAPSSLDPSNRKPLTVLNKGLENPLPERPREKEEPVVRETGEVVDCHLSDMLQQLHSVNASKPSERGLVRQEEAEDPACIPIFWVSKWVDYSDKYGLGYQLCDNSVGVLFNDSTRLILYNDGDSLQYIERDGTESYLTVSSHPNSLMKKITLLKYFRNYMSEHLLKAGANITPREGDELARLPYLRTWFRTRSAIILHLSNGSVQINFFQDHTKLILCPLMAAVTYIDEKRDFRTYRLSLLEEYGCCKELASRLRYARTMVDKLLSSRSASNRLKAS
Consider S1453A, for which the “effect of a mutation on the interaction” value was “decreasing interaction”.
